Experiments:
[1] = molecular target: IpaB^1.226 (Shigella flexneri); assay: cross-linking
IpgC (Shigella flexneri) = IpgC (Shigella flexneri) (UniProt P0A2U4); assay: ITC
[2] = molecular target: IpaB^28.226 (Shigella flexneri); assay: cross-linking
[3] = molecular target: FM-IpaB^C1.226 (Shigella flexneri); assay: fluorescence polarisation
[4] = molecular target: FM-IpaB^N28.226 (Shigella flexneri); assay: fluorescence polarisation
[5] = molecular target: FM-IpaB^N1.226 (Shigella flexneri); assay: fluorescence polarisation
[6] = molecular target: FM-IpaB^C28.226 (Shigella flexneri); assay: fluorescence polarisation

Row | Substance | stoichiometry N [1] | Kd (IpgC (Shigella flexneri)) [nM] | dH (IpgC (Shigella flexneri)) [kcal/mol] | stoichiometry N (IpgC (Shigella flexneri)) | stoichiometry N [2] | Kd [3] [nM] | Kd [4] [nM] | Kd [5] [nM] | Kd [6] [nM]
1 | IpaB^1.226 (domain or fragment) | 2 | 208 | 8.68 | 1.03 | – | – | – | – | –
2 | IpaB^28.226 (domain or fragment) | – | 2960 | 3.55 | 0.88 | 2 | – | – | – | –
3 | IpgC (from UniProt P0A2U4 1-155) (natural protein) | – | – | – | – | – | 59.5 | 411 | 199 | 501
